Source: paper PMC5014551

B1: Bol3-Strep [S. cerevisiae] / Grx5 [S. cerevisiae (endogenous in yeast mitochondria)] (parent)
chain 1: MKLPQTMLRSISVKHVRWPRILTGSKLWYSTQMAMTPEEKMITDKLQQELEPEVCKVQDVSGGCGSMFAINITSKKFNGLSLIKQHQLVNRILRDDISRWHGLQLTTKKSTGKGPASS
chain 2: LSTEIRKAIEDAIESAPVVLFMKGTPEFPKCGFSRATIGLLGNQGVDPAKFAAYNVLEDPELREGIKEFSEWPTIPQLYVNKEFIGGCDVITSMARSGELADLLEEAQALVPEEEEETKDR
B2: Bol3-Strep [S. cerevisiae] / Sdh2 [S. cerevisiae (endogenous in yeast mitochondria)] (parent)
chain 1: B1 chain 1
chain 2: TATTAAATHTPRLKTFKVYRWNPDEPSAKPHLQSYQVDLNDCGPMVLDALLKIKDEQDSTLTFRRSCREGICGSCAMNIGGRNTLACICKIDQNESKQLKIYPLPHMFIVKDLVPDLTNFYQQYKSIQPYLQRSSFPKDGTEVLQSIEDRKKLDGLYECILCACCSTSCPSYWWNQEQYLGPAVLMQAYRWLIDSRDQATKTRKAMLNNSMSLYRCHTIMNCTRTCPKGLNPGLAIAEIKKSLAFA
B3: Bol3-Strep [S. cerevisiae] / Aco2 [S. cerevisiae (endogenous in yeast mitochondria)] (parent)
chain 1: B1 chain 1
chain 2: ATHANMFPSVSKNFQTKVPPYAKLLTNLDKIKQITNNAPLTLAEKILYSHLCDPEESITSSDLSTIRGNKYLKLNPDRVAMQDASAQMALLQFMTTGLNQTSVPASIHCDHLIVGKDGETKDLPSSIATNQEVFDFLESCAKRYGIQFWGPGSGIIHQIVLENFSAPGLMMLGTDSHTPNAGGLGAIAIGVGGADAVDALTGTPWELKAPKILGVKLTGKLNGWSTPKDVITKLAGLLTVRGGTGYIVEYFGEGVSTLSCTGMATICNMGAEIGATTSTFPYQEAHKRYLQATNRAEVAEAADVALNKFNFLRADKDAQYDKVIEIDLSAIEPHVNGPFTPDLSTPISQYAEKSLKENWPQKVSAGLIGSCTNSSYQDMSRVVDLVKQASKAGLKPRIPFFVTPGSEQIRATLERDGIIDIFQENGAKVLANACGPCIGQWNREDVSKTSKETNTIFTSFNRNFRARNDGNRNTMNFLTSPEIVTAMSYSGDAQFNPLTDSIKLPNGKDFKFQPPKGDELPKRGFEHGRDKFYPEMDPKPDSNVEIKVDPNSDRLQLLEPFKPWNGKELKTNVLLKVEGKCTTDHISAAGVWLKYKGHLENISYNTLIGAQNKETGEVNKAYDLDGTEYDIPGLMMKWKSDGRPWTVIAEHNYGEGSAREHAALSPRFLGGEILLVKSFARIHETNLKKQGVLPLTFANESDYDKISSGDVLETLNLVDMIAKDGNNGGEIDVKITKPNGESFTIKAKHTMSKDQIDFFKAGSAINYIGNIRRNE
B4: Bol1-Strep [S. cerevisiae] / Grx5 [S. cerevisiae (endogenous in yeast mitochondria)] (parent)
chain 1: MFKRAMSTDGPVARTILKRLECGFPDYKNFAFGLYNDSHKHKGHAGVQGNVSAETHFRIEMVSKKFEGLKLPQRHRMVYSLLQDEMAQANGIHALQLSLKTPQEYESKAK
chain 2: B1 chain 2
B5: Bol3-Strep [S. cerevisiae] / Lip5 [S. cerevisiae (endogenous in yeast mitochondria)] (parent)
chain 1: B1 chain 1
chain 2: SSTIRCGTSATRPIRSNALNTDSDNASVRVPVGNSTEVENATSQLTGTSGKRRKGNRKRITEFKDALNLGPSFADFVSGKASKMILDPLEKARQNTEEAKKLPRWLKVPIPKGTNYHKLKGDVKELGLSTVCEEARCPNIGECWGGKDKSKATATIMLLGDTCTRGCRFCSVKTNRTPSKPDPMEPENTAEAIKRWGLGYVVLTTVDRDDLVDGGANHLAETVRKIKQKAPNTLVETLSGDFRGDLKMVDIMAQCGLDVYAHNLETVESLTPHVRDRRATYRQSLSVLERAKATVPSLITKTSIMLGLGETDEQITQTLKDLRNIQCDVVTFGQYMRPTKRHMKVVEYVKPEKFDYWKERALEMGFLYCASGPLVRSSYKAGEAFIENVLKKRNMK
B6: Bol3-Strep [S. cerevisiae] / Aco1 [S. cerevisiae (endogenous in yeast mitochondria)] (parent)
chain 1: B1 chain 1
chain 2: ATVSNLTRDSKVNQNLLEDHSFINYKQNVETLDIVRKRLNRPFTYAEKILYGHLDDPHGQDIQRGVSYLKLRPDRVACQDATAQMAILQFMSAGLPQVAKPVTVHCDHLIQAQVGGEKDLKRAIDLNKEVYDFLASATAKYNMGFWKPGSGIIHQIVLENYAFPGALIIGTDSHTPNAGGLGQLAIGVGGADAVDVMAGRPWELKAPKILGVKLTGKMNGWTSPKDIILKLAGITTVKGGTGKIVEYFGDGVDTFSATGMGTICNMGAEIGATTSVFPFNKSMIEYLEATGRGKIADFAKLYHKDLLSADKDAEYDEVVEIDLNTLEPYINGPFTPDLATPVSKMKEVAVANNWPLDVRVGLIGSCTNSSYEDMSRSASIVKDAAAHGLKSKTIFTVTPGSEQIRATIERDGQLETFKEFGGIVLANACGPCIGQWDRRDIKKGDKNTIVSSYNRNFTSRNDGNPQTHAFVASPELVTAFAIAGDLRFNPLTDKLKDKDGNEFMLKPPHGDGLPQRGYDAGENTYQAPPADRSTVEVKVSPTSDRLQLLKPFKPWDGKDAKDMPILIKAVGKTTTDHISMAGPWLKYRGHLENISNNYMIGAINAENKKANCVKNVYTGEYKGVPDTARDYRDQGIKWVVIGDENFGEGSSREHAALEPRFLGGFAIITKSFARIHETNLKKQGLLPLNFKNPADYDKINPDDRIDILGLAELAPGKPVTMRVHPKNGKPWDAVLTHTFNDEQIEWFKYGSALNKIKADEKK
B7: Bol3-Strep [S. cerevisiae] / Bio2 [S. cerevisiae (endogenous in yeast mitochondria)] (parent)
chain 1: B1 chain 1
chain 2: TKYATNAAVKSTTASSEASTLGALQYALSLDEPSHSWTKSQLKEIYHTPLLELTHAAQLQHRKWHDPTKVQLCTLMNIKSGGCSEDCKYCAQSSRNDTGLKAEKMVKVDEVIKEAEEAKRNGSTRFCLGAAWRDMKGRKSAMKRIQEMVTKVNDMGLETCVTLGMVDQDQAKQLKDAGLTAYNHNIDTSREHYSKVITTRTYDDRLQTIKNVQESGIKACTGGILGLGESEDDHIGFIYTLSNMSPHPESLPINRLVAIKGTPMAEELADPKSKKLQFDEILRTIATARIVMPKAIIRLAAGRYTMKETEQFVCFMAGCNSIFTGKKMLTTMCNGWDEDKAMLAKWGLQPMEAFKYDRS
B8: Bol3-Strep [S. cerevisiae] / Lys4 [S. cerevisiae (endogenous in yeast mitochondria)] (parent)
chain 1: B1 chain 1
chain 2: LKGQNLTEKIVQSYAVNLPEGKVVHSGDYVSIKPAHCMSHDNSWPVALKFMGLGATKIKNPSQIVTTLDHDIQNKSEKNLTKYKNIENFAKKHHIDHYPAGRGIGHQIMIEEGYAFPLNMTVASDSHSNTYGGLGSLGTPIVRTDAAAIWATGQTWWQIPPVAQVELKGQLPQGVSGKDIIVALCGLFNNDQVLNHAIEFTGDSLNALPIDHRLTIANMTTEWGALSGLFPVDKTLIDWYKNRLQKLGTNNHPRINPKTIRALEEKAKIPKADKDAHYAKKLIIDLATLTHYVSGPNSVKVSNTVQDLSQQDIKINKAYLVSCTNSRLSDLQSAADVVCPTGDLNKVNKVAPGVEFYVAAASSEIEADARKSGAWEKLLKAGCIPLPSGCGPCIGLGAGLLEPGEVGISATNRNFKGRMGSKDALAYLASPAVVAASAVLGKISSPAEVLSTSEIPFSGVKTEIIENPVVEEEVNAQTEAPKQSVEILEGFPREFSGELVLCDADNINTDGIYPGKYTYQDDVPKEKMAQVCMENYDAEFRTKVHPGDIVVSGFNFGTGSSREQAATALLAKGINLVVSGSFGNIFSRNSINNALLTLEIPALIKKLREKYQGAPKELTRRTGWFLKWDVADAKVVVTEGSLDGPVILEQKVGELGKNLQEIIVKGGLEGWVKSQL

Variants of: B1
Assay: Strep-tag affinity purification with MS proteomics (spectral counts)
Conditions: parent: 21, read off a plot

Row | screen value | Variant
1 | 18% | chain 1 MKLPQTMLRSISVKHVRWPRILTGSKLWYSTQMAMTPEEKMITDKLQQELEPEVCKVQDVSGGCGSMFAINITSKKFNGLSLIKQHQLVNRILRDDISRWCGLQLTTKKSTGKGPASS [chain 1 H101C]

Variants of: B2
Assay: as above
Conditions: parent: 32, read off a plot

Row | screen value | Variant
2 | 24% | chain 1 MKLPQTMLRSISVKHVRWPRILTGSKLWYSTQMAMTPEEKMITDKLQQELEPEVCKVQDVSGGCGSMFAINITSKKFNGLSLIKQHQLVNRILRDDISRWCGLQLTTKKSTGKGPASS [chain 1 H101C]

Variants of: B3
Assay: as above
Conditions: parent: 0, read off a plot

Row | screen value | Variant
3 | 11% | chain 1 MKLPQTMLRSISVKHVRWPRILTGSKLWYSTQMAMTPEEKMITDKLQQELEPEVCKVQDVSGGCGSMFAINITSKKFNGLSLIKQHQLVNRILRDDISRWCGLQLTTKKSTGKGPASS [chain 1 H101C]

Variants of: B4
Assay: as above
Conditions: parent: 47, read off a plot

Row | screen value | Variant
4 | 5.9% | chain 1 MFKRAMSTDGPVARTILKRLECGFPDYKNFAFGLYNDSHKHKGHAGVQGNVSAETHFRIEMVSKKFEGLKLPQRHRMVYSLLQDEMAQANGICALQLSLKTPQEYESKAK [chain 1 H93C]

Variants of: B5
Assay: as above
Conditions: parent: 10, read off a plot

Row | screen value | Variant
5 | 10% | chain 1 MKLPQTMLRSISVKHVRWPRILTGSKLWYSTQMAMTPEEKMITDKLQQELEPEVCKVQDVSGGCGSMFAINITSKKFNGLSLIKQHQLVNRILRDDISRWCGLQLTTKKSTGKGPASS [chain 1 H101C]

Variants of: B6
Assay: as above
Conditions: parent: 10, read off a plot

Row | screen value | Variant
6 | 22% | chain 1 MKLPQTMLRSISVKHVRWPRILTGSKLWYSTQMAMTPEEKMITDKLQQELEPEVCKVQDVSGGCGSMFAINITSKKFNGLSLIKQHQLVNRILRDDISRWCGLQLTTKKSTGKGPASS [chain 1 H101C]

Variants of: B7
Assay: as above
Conditions: parent: 8, read off a plot

Row | screen value | Variant
7 | 31% | chain 1 MKLPQTMLRSISVKHVRWPRILTGSKLWYSTQMAMTPEEKMITDKLQQELEPEVCKVQDVSGGCGSMFAINITSKKFNGLSLIKQHQLVNRILRDDISRWCGLQLTTKKSTGKGPASS [chain 1 H101C]

Variants of: B8
Assay: as above
Conditions: parent: 10, read off a plot

Row | screen value | Variant
8 | 30% | chain 1 MKLPQTMLRSISVKHVRWPRILTGSKLWYSTQMAMTPEEKMITDKLQQELEPEVCKVQDVSGGCGSMFAINITSKKFNGLSLIKQHQLVNRILRDDISRWCGLQLTTKKSTGKGPASS [chain 1 H101C]
